Assay results as given in publication PMC11697113, “The Hsc70 system maintains the synaptic SNARE protein SNAP-25 in an assembly-competent state and delays its aggregation [drawing 1]” (The Journal of Biological Chemistry, 2024).

Biological target: heat shock cognate 70 (Hsc70), human constitutively expressed Hsp70, wild type (human) (UniProt P11142)
Sequence (P11142 whole entry): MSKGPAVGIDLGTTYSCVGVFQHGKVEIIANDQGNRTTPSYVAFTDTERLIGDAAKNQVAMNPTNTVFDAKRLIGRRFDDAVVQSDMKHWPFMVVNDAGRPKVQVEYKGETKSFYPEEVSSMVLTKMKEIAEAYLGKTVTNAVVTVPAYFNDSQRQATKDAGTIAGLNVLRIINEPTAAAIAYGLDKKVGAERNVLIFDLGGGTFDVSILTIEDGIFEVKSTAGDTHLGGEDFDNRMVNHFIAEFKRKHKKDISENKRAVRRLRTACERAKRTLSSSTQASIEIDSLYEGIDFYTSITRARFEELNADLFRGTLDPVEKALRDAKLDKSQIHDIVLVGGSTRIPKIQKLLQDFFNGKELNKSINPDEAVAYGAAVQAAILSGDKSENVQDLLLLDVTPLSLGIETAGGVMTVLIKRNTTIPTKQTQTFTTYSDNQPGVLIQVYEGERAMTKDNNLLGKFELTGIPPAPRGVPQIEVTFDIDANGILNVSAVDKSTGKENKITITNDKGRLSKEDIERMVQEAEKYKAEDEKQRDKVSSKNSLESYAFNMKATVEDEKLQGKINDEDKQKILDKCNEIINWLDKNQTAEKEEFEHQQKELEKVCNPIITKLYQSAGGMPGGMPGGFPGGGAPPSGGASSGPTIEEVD

lag time of SNAP-25 aggregation (50 μM SNAP-25, optical density at 360 nm, 37 °C) in the presence of Hsc70 (5 μM); ∼38 h without Hsc70: 65 h
Substance: SNAP-25 (SNAP-25B, Cys-less CS mutant), His tag cleaved (from UniProt P60880-1 1-206) (natural protein)
